# Assay results from US20210284747A1 (CAPELLA BIOSCIENCE, published 2021).
# Positions count from the first letter of the chain named. Numbers in names are those of the source.
# T1: Human LIGHT-32L, on II23 cells (human, UniProt O43557 1-240)
# T1 construct: also called II23-LIGHT 32L
# T1 chain: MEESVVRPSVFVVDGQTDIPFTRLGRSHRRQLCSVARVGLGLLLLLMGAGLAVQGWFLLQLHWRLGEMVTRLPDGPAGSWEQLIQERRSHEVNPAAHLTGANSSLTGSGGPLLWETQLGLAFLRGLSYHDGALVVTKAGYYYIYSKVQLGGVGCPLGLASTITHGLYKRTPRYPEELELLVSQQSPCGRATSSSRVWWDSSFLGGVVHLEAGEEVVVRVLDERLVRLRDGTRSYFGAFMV
# B1: 2E08 chimeric IgG4 mAb (antibody, V domains shown)
# VH: QVQMKESGAELVRPGVSVKISCKGSGYTFTDYAIHWVKQSHAKTLEWIGVISTYYGDASYNQKFKGKATMTVDKSSSTAYMELARLTSDDSAIYYCARSRGEYGNYDAMDYWGQGTSVTVSS
# VL: DIVLTQSPASLAVSLGQRATISCKASQSVDYDGDSYMNWYQQKPGQPPKLLIYAASNLESGIPARFSGSGSGTDFTLNIHPVEEEDAATYYCQQSNEDPLTFGAGTKLELK
# notes: Chimeric human IgG4 (S-to-P, L-to-E) with human CL, as m1; also called Parental 2E08
# B2: 2B11 chimeric IgG4 mAb (antibody, V domains shown)
# VH: B1 VH with Q1E, M4L, K5V, T44S, D89E
# VL: DIVLTQSPASLAVSLGQRATISCRASESVDSYGNSFMHWYQQKPGQPPKLLIYRASNLESGIPARFSGSGSRTDFTLTINPVEADDVATYYCQQSNEDPYTFGGGTKLEIK
# notes: Chimeric human IgG4 (S-to-P, L-to-E) with human CL, as m1; Often misprinted 2B111; also called Parental 2B11; 2B111
# B3: 3A07 chimeric IgG4 mAb (antibody, V domains shown)
# VH: QVQLQQSGAELVRPGAPVTLSCKASDYTFTDSEIHWVKQTPVHGLEWIGEIDPETGGTAYNQKFKGKATLTADKSSSTAYMELRSLTSEDSAVYYCSRETDYFFDYWGQGTTLTVSS
# VL: ENVLTQSPAIMSASPGEKVTMTCSASSSVSYMYWYQQRPGSSPRLLIYDTSNLASGVPVRFSGSGSGTSYSLTISRMEAEDAATYYCQQWSSYPLTFGSGTKLEIK
# notes: Chimeric human IgG4 (S-to-P, L-to-E) with human CL, as m1; also called Parental 3A07
# B4: 3C10 chimeric IgG4 mAb (antibody, V domains shown)
# VH: B3 VH with Q1E, P17S
# VL: B3 VL with E1D, N2V, L4M, S7T, R38K, S99A, I105L
# notes: Chimeric human IgG4 (S-to-P, L-to-E) with human CL, as m1; also called Parental 3C10
# B5: 3B04_var3 (antibody, V domains shown)
# VH: QVQLVQSGAEVKKPGASVKVSCKASGYTFTDYEMHWVRQAPGQGLEWMGEIDPETGDTAYAQKFQGRVTLTADKSTSTAYMEFSSLRSEDTAVYYSCRETDYFFDYWGQGTLVTVSS
# VL: DIQMTQSPSSLSASVGDRVTITCGASENIYGALNWYQRKQGKAPQLLIYGATNLADGVSSRFSGSGSGRDYTLTISSLQPEDFATYYCQNVLTTPWTFGQGTKLEIKR
# notes: Human IgG4 (S241P, L248E, Kabat); also called 3B04VH3VK1
# B6: 3B04_var11 (antibody, V domains shown)
# VH: B5 VH
# VL: B5 VL with R38Q, Q40P, Q45K, S59P
# notes: Human IgG4 (S241P, L248E, Kabat); also called 3B04VH3VK3
# B7: 3B04_var7 (antibody, V domains shown)
# VH: B5 VH
# VL: B5 VL with Q45K, S59P
# notes: Human IgG4 (S241P, L248E, Kabat); also called 3B04VH3VK2
# Biological target: LIGHT without residues 81-84, stably expressed on EL4 cells (EL4-NC-LIGHT)
# Assay: cell-based or functional assay
row,Binder,"IC50, inhibition of IL-8 secretion, HT-29 + EL4-NC-LIGHT cells"
1,B1,1.8 nM
2,B2,0.6 nM
3,B3,2 nM
4,B4,1.9 nM

# Biological target: T2, Human LIGHT stably expressed on EL4 cells (EL4-LIGHT) (human, UniProt O43557 1-240)
# T2 construct: whole, on cells; also called membrane LIGHT
# Assay: flow cytometry, against F19 and F23
# T2 sequence (O43557 whole entry): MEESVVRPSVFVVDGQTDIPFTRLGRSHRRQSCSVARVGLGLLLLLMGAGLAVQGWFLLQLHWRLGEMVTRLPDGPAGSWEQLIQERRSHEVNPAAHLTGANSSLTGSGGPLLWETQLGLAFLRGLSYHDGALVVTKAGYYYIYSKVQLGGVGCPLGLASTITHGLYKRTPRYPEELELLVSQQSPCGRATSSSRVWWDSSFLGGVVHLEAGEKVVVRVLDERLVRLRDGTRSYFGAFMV
row,Binder,"binding ratio, mAb to LIGHT trimer"
1,B1,1 mAb per LIGHT trimer
2,B2,1 mAb per LIGHT trimer
3,B3,1 mAb per LIGHT trimer
4,B4,1 mAb per LIGHT trimer

# Biological target: T2, Human LIGHT stably expressed on EL4 …
# Assay: flow cytometry, EL4-LIGHT cells
# Experimental: The EC50 of the 7 mAbs were calculated from binding to EL4-LIGHT cells (FIG. 1). […] Non-linear regression analysis was performed to determine the functional binding affinity measurement or EC50 for each mAb. A range of functional affinities was observed.
row,Binder,EC50
1,B1,2.73 nM
2,B2,0.083 nM
3,B3,0.133 nM
4,B4,0.118 nM

# Biological target: T2, Human LIGHT stably expressed on EL4 …
# Assay: flow cytometry, EL4-LIGHT cells
# Remark: another data set of the same source
row,Binder,EC50
1,B5,0.32 nM
2,B6,0.37 nM
3,B7,0.23 nM

# Biological target: Full length LIGHT G188A on HEK293FF cells (Homo sapiens (Human), UniProt O43557 1-240)
# Assay: flow cytometry, HEK293FF, mAb at EC50
# Experimental: (§1) The day of transfection the cells were seeded in a 24-well plate at 0.6×10⁶ cells/well. Lipofectamine 2000 (ThermoFisher scientific), 3 ul, was mixed with 50 μl OptiMEM medium (GIBCO) and then added to 50 μl Opti-MEM medium containing 3 ug plasmid DNA and incubated for 20 min at RT to form DNA-Lipofectamine 2000 complexes which were then added to the HEK293FF cells and incubated at 37° C., 5% CO₂ for 24 hours. For each construct, in duplicate, 0.60×10⁶ cells/well were used in a 96 well round bottom plate. Cells were centrifuged for 3 minutes at 300×g at 4° C., the supernatant discarded and the cells washed with 150 μl FACS buffer (0.5% FBS in phosphate buffered saline). This process was repeated 3 times. […] The wells were washed 3 times as above and 50 μl/well of goat anti-human IgG FITC (1:1500 dilution in FACS buffer, SIGMA F9512-2ML) or goat anti-mouse APC (1/500 dilution in FACS buffer, BDBioscience 550826), as appropriate, was added to the wells and incubated for 30 min at 4° C. protected from the light, with shaking. The cells were then washed as above, resuspended in 100 μl of FACS buffer and binding of the antibodies to the constructs was measured using flow cytometry and a total of 10,000 cells were acquired for each sample. Controls of buffer and secondary antibody only as well as HEK293FF non transfected cells were also used.
# Full length LIGHT G188A on HEK293FF cells, sequence (O43557 whole entry G188A): as the sequence (O43557 whole entry) above, with G188A counted along it
row,Binder,% of WT binding
1,B1,44%
2,B2,3%
3,B3,5%
4,B4,3%

# Biological target: Full length LIGHT R189A on HEK293FF cells (Homo sapiens (Human), UniProt O43557 1-240)
# Assay: flow cytometry, HEK293FF, mAb at EC50
# Experimental: as §1
# Full length LIGHT R189A on HEK293FF cells, sequence (O43557 whole entry R189A): as the sequence (O43557 whole entry) above, with R189A counted along it
row,Binder,% of WT binding
1,B1,2%
2,B2,0%
3,B3,0%
4,B4,0%

# Biological target: Full length LIGHT A190S on HEK293FF cells (Homo sapiens (Human), UniProt O43557 1-240)
# Assay: flow cytometry, HEK293FF, mAb at EC50
# Experimental: as §1
# Full length LIGHT A190S on HEK293FF cells, sequence (O43557 whole entry A190S): as the sequence (O43557 whole entry) above, with A190S counted along it
row,Binder,% of WT binding
1,B1,93%
2,B2,52%
3,B3,47%
4,B4,40%

# Biological target: Full length LIGHT T191A on HEK293FF cells (Homo sapiens (Human), UniProt O43557 1-240)
# Assay: flow cytometry, HEK293FF, mAb at EC50
# Experimental: as §1
# Full length LIGHT T191A on HEK293FF cells, sequence (O43557 whole entry T191A): as the sequence (O43557 whole entry) above, with T191A counted along it
row,Binder,% of WT binding
1,B1,22%
2,B2,1%
3,B3,4%
4,B4,3%

# Biological target: Full length LIGHT S192A on HEK293FF cells (Homo sapiens (Human), UniProt O43557 1-240)
# Assay: flow cytometry, HEK293FF, mAb at EC50
# Experimental: as §1
# Full length LIGHT S192A on HEK293FF cells, sequence (O43557 whole entry S192A): as the sequence (O43557 whole entry) above, with S192A counted along it
row,Binder,% of WT binding
1,B1,122%
2,B2,96%
3,B3,41%
4,B4,35%

# Biological target: Full length LIGHT S193A on HEK293FF cells (Homo sapiens (Human), UniProt O43557 1-240)
# Assay: flow cytometry, HEK293FF, mAb at EC50
# Experimental: as §1
row,Binder,% of WT binding
1,B1,0%
2,B2,0%
3,B3,0%
4,B4,0%

# Biological target: Full length LIGHT S194A on HEK293FF cells (Homo sapiens (Human), UniProt O43557 1-240)
# Assay: flow cytometry, HEK293FF, mAb at EC50
# Experimental: as §1
# Full length LIGHT S194A on HEK293FF cells, sequence (O43557 whole entry S194A): as the sequence (O43557 whole entry) above, with S194A counted along it
row,Binder,% of WT binding
1,B1,3%
2,B2,0%
3,B3,1%
4,B4,0%

# Biological target: Full length LIGHT R195A on HEK293FF cells (Homo sapiens (Human), UniProt O43557 1-240)
# Assay: flow cytometry, HEK293FF, mAb at EC50
# Experimental: as §1
# Full length LIGHT R195A on HEK293FF cells, sequence (O43557 whole entry R195A): as the sequence (O43557 whole entry) above, with R195A counted along it
row,Binder,% of WT binding
1,B1,43%
2,B2,78%
3,B3,15%
4,B4,6%

# Biological target: Full length LIGHT V196A on HEK293FF cells (Homo sapiens (Human), UniProt O43557 1-240)
# Assay: flow cytometry, HEK293FF, mAb at EC50
# Experimental: as §1
row,Binder,% of WT binding
1,B1,99%
2,B2,73%
3,B3,77%
4,B4,78%

# Biological target: Full length LIGHT W197A on HEK293FF cells (Homo sapiens (Human), UniProt O43557 1-240)
# Assay: flow cytometry, HEK293FF, mAb at EC50
# Experimental: as §1
# Full length LIGHT W197A on HEK293FF cells, sequence (O43557 whole entry W197A): as the sequence (O43557 whole entry) above, with W197A counted along it
row,Binder,% of WT binding
1,B1,0%
2,B2,0%
3,B3,1%
4,B4,0%

# Biological target: Full length LIGHT W198A on HEK293FF cells (Homo sapiens (Human), UniProt O43557 1-240)
# Assay: flow cytometry, HEK293FF, mAb at EC50
# Experimental: as §1
# Full length LIGHT W198A on HEK293FF cells, sequence (O43557 whole entry W198A): as the sequence (O43557 whole entry) above, with W198A counted along it
row,Binder,% of WT binding
1,B1,83%
2,B2,77%
3,B3,82%
4,B4,86%

# Biological target: T1, Human LIGHT-32L, on II23 cells
# Assay: flow cytometry on II23-LIGHT 32L cells, 4 ug mAb in 100 uL, goat anti-human Fc gamma-PE; signal as % of the commercial anti-LIGHT-PE
# Experimental: The cells were suspended at 1×10⁷ cells/ml and 100 uL aliquots were placed into wells of a 96-well plate, the cells spun down and washed in FACS buffer at 1800 rpm for 2 min. The cells were blocked with 1:100 dilution of anti-CD16/CD32 (eBioscience, San Diego, USA) in FACS buffer for 20 min at room temperature and then washed 1× in FACS buffer at 1800 rpm for 2 min. The cells were then resuspended in 100 uL FACS buffer+4 ug anti-membrane LIGHT mAbs or anti-LIGHT-PE (eBioscience, lot: E01621-1632) for 30 min in the dark at room temperature, followed by washing 1× in FACS buffer at 1800 rpm for 2 min and then resuspended in 100 uL FACS buffer plus 1:100 goat anti-human Fcγ-PE secondary antibody or no secondary antibody at 4° C. in the dark for 30 min. The cells were again washed 1× in FACS buffer at 1800 rpm for 2 min and fixed in 200 uL 2% paraformaldehyde overnight at 4° C. and read on a flow cytometer.
row,Binder,binding result
1,B1,binds
2,B2,binds
3,B3,binds
4,B4,binds

# Biological target: T2, Human LIGHT stably expressed on EL4 …
# Assay: flow cytometry competition on EL4-LIGHT cells, co-incubation 40 min 4 C; blocked ligand DcR3-Fc-AF647 0.8 ug/ml; displacement is partial
# Experimental: (§2) EL4-LIGHT cells were co-incubated with Alexa Fluor 647 conjugated DcR3-Fc (DcR3-Fc-AF647; 0.8 μg/ml) and graded concentrations (31 μg/ml to 128 μg/ml) of anti-membrane LIGHT antibodies (3B04, 03D12 and 02B111) for 40 min at 4° C. A control, of a mAb that binds both soluble and membrane LIGHT was included (F19 from EP2292663). The samples were washed three times and flow cytometry analysis was performed. Specific mean fluorescence intensity (MFI) obtained from the binding of DcR3-Fc-AF647 to LIGHT on EL4 cells were used to determine the levels of competition binding.
row,Binder,IC50
1,B2,0.031 mg/L

# Biological target: T2, Human LIGHT stably expressed on EL4 …
# Assay: flow cytometry competition on EL4-LIGHT cells, co-incubation 40 min 4 C; blocked ligand DcR3-Fc-AF647 0.8 ug/ml; same IC50 as 0.031ug/ml, second unit printed
# Experimental: as §2
row,Binder,IC50
1,B2,0.214 nM
